Laboratory results from the supplement of paper PMC9112550, “Optimization of the antimicrobial peptide Bac7 by deep mutational scanning” (BMC Biology, 2022).

Tested on: Escherichia coli TOP10
Assay: shrunken log2 fold change of peptide-encoding DNA abundance (4.5 h post-induction vs induction); higher = less antimicrobial activity (less host growth inhibition)
Conditions: time post-induction: 4.5 h; library: site-saturation at positions 5, 18, 19, 20
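Further: peptides expressed intracellularly from a pBAD plasmid library in pooled LB shake-flask culture, induced with 0.3% L-arabinose, DNA abundance read by NGS, three biological replicates, DESeq2 with apeglm shrinkage.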

RRIRIRPPRLPRPRPRPGCFPRP
shrunken log2 fold change: -0.0641

RRIRIRPPRLPRPRPRPGFLPRP
shrunken log2 fold change: -0.328

RRIRIRPPRLPRPRPRPGFYPRP
shrunken log2 fold change: 0.054

RRIRIRPPRLPRPRPRPGGKPRP
shrunken log2 fold change: -0.31

RRIRIRPPRLPRPRPRPGGTPRP
shrunken log2 fold change: -0.439

RRIRIRPPRLPRPRPRPGMAPRP
shrunken log2 fold change: 0.006

RRIRIRPPRLPRPRPRPGMQPRP
shrunken log2 fold change: -0.282

RRIRIRPPRLPRPRPRPGNYPRP
shrunken log2 fold change: -0.261

RRIRIRPPRLPRPRPRPGPLPRP
shrunken log2 fold change: -0.00626

RRIRIRPPRLPRPRPRPGPRPRP
shrunken log2 fold change: 0.358

RRIRIRPPRLPRPRPRPGRDPRP
shrunken log2 fold change: 0.0442

RRIRIRPPRLPRPRPRPGRKPRP
shrunken log2 fold change: 0.0417

RRIRIRPPRLPRPRPRPGRWPRP
shrunken log2 fold change: 0.473

RRIRIRPPRLPRPRPRPGTLPRP
shrunken log2 fold change: 0.0164

RRIRIRPPRLPRPRPRPGVFPRP
shrunken log2 fold change: 0.292

RRIRIRPPRLPRPRPRPGVTPRP
shrunken log2 fold change: -0.0211

RRIRIRPPRLPRPRPRPGWNPRP
shrunken log2 fold change: -0.0913

RRIRIRPPRLPRPRPRPGWWPRP
shrunken log2 fold change: 0.405

RRIRIRPPRLPRPRPRPHAWPRP
shrunken log2 fold change: 0.0947

RRIRIRPPRLPRPRPRPHCAPRP
shrunken log2 fold change: -0.0649

RRIRIRPPRLPRPRPRPHCVPRP
shrunken log2 fold change: -0.533

RRIRIRPPRLPRPRPRPHDAPRP
shrunken log2 fold change: -0.175

RRIRIRPPRLPRPRPRPHDLPRP
shrunken log2 fold change: -0.057

RRIRIRPPRLPRPRPRPHEKPRP
shrunken log2 fold change: -0.123

RRIRIRPPRLPRPRPRPHELPRP
shrunken log2 fold change: -0.156

RRIRIRPPRLPRPRPRPHFNPRP
shrunken log2 fold change: -0.966

RRIRIRPPRLPRPRPRPHGHPRP
shrunken log2 fold change: -0.216

RRIRIRPPRLPRPRPRPHIVPRP
shrunken log2 fold change: -0.0875

RRIRIRPPRLPRPRPRPHKMPRP
shrunken log2 fold change: -0.237

RRIRIRPPRLPRPRPRPHMCPRP
shrunken log2 fold change: -1.25

RRIRIRPPRLPRPRPRPHPNPRP
shrunken log2 fold change: -0.404

RRIRIRPPRLPRPRPRPHQHPRP
shrunken log2 fold change: -0.351

RRIRIRPPRLPRPRPRPHRAPRP
shrunken log2 fold change: 0.0775

RRIRIRPPRLPRPRPRPHRCPRP
shrunken log2 fold change: -0.0635

RRIRIRPPRLPRPRPRPHTFPRP
shrunken log2 fold change: -1.53

RRIRIRPPRLPRPRPRPHTVPRP
shrunken log2 fold change: -0.588

RRIRIRPPRLPRPRPRPHVQPRP
shrunken log2 fold change: -0.131

RRIRIRPPRLPRPRPRPHWMPRP
shrunken log2 fold change: -1.57

RRIRIRPPRLPRPRPRPHWSPRP
shrunken log2 fold change: -0.187

RRIRIRPPRLPRPRPRPHYNPRP
shrunken log2 fold change: -1.03

RRIRIRPPRLPRPRPRPHYSPRP
shrunken log2 fold change: -1.15

RRIRIRPPRLPRPRPRPIAMPRP
shrunken log2 fold change: -0.216

RRIRIRPPRLPRPRPRPIASPRP
shrunken log2 fold change: -0.567

RRIRIRPPRLPRPRPRPICQPRP
shrunken log2 fold change: -0.418

RRIRIRPPRLPRPRPRPIDQPRP
shrunken log2 fold change: -0.341

RRIRIRPPRLPRPRPRPIFQPRP
shrunken log2 fold change: -0.378

RRIRIRPPRLPRPRPRPIHWPRP
shrunken log2 fold change: -0.0782

RRIRIRPPRLPRPRPRPIIMPRP
shrunken log2 fold change: -0.34

RRIRIRPPRLPRPRPRPILDPRP
shrunken log2 fold change: -0.797

RRIRIRPPRLPRPRPRPILFPRP
shrunken log2 fold change: -0.273

RRIRIRPPRLPRPRPRPILWPRP
shrunken log2 fold change: -0.238

RRIRIRPPRLPRPRPRPIMDPRP
shrunken log2 fold change: -0.364

RRIRIRPPRLPRPRPRPIMLPRP
shrunken log2 fold change: 0.112

RRIRIRPPRLPRPRPRPIMMPRP
shrunken log2 fold change: -0.132

RRIRIRPPRLPRPRPRPINVPRP
shrunken log2 fold change: -0.619

RRIRIRPPRLPRPRPRPIPEPRP
shrunken log2 fold change: -0.158

RRIRIRPPRLPRPRPRPIPKPRP
shrunken log2 fold change: -0.0993

RRIRIRPPRLPRPRPRPIPSPRP
shrunken log2 fold change: -0.193

RRIRIRPPRLPRPRPRPIPVPRP
shrunken log2 fold change: -0.0943

RRIRIRPPRLPRPRPRPISVPRP
shrunken log2 fold change: 0.0153

RRIRIRPPRLPRPRPRPIVNPRP
shrunken log2 fold change: -0.67

RRIRIRPPRLPRPRPRPIYPPRP
shrunken log2 fold change: -0.304

RRIRIRPPRLPRPRPRPKALPRP
shrunken log2 fold change: -0.0211

RRIRIRPPRLPRPRPRPKCCPRP
shrunken log2 fold change: -0.143

RRIRIRPPRLPRPRPRPKCDPRP
shrunken log2 fold change: -0.352

RRIRIRPPRLPRPRPRPKCHPRP
shrunken log2 fold change: -0.199

RRIRIRPPRLPRPRPRPKEGPRP
shrunken log2 fold change: 0.00692

RRIRIRPPRLPRPRPRPKFMPRP
shrunken log2 fold change: -0.321

RRIRIRPPRLPRPRPRPKHPPRP
shrunken log2 fold change: -0.0675

RRIRIRPPRLPRPRPRPKIEPRP
shrunken log2 fold change: -0.0307

RRIRIRPPRLPRPRPRPKIWPRP
shrunken log2 fold change: 0.145

RRIRIRPPRLPRPRPRPKKRPRP
shrunken log2 fold change: -0.169

RRIRIRPPRLPRPRPRPKMLPRP
shrunken log2 fold change: 0.154

RRIRIRPPRLPRPRPRPKMRPRP
shrunken log2 fold change: 0.742

RRIRIRPPRLPRPRPRPKNKPRP
shrunken log2 fold change: -0.68
